According to US20190300590A1 (PROTAGONIST THERAPEUTICS, published 2019):
Read-outs that look alike come from different tables or passages of the source. *1 amine or outer side, *2 acyl side, *3 side chain or, on linkers, in order; H or OH if unused. Bridges are numbered along the chain shown (N, C = ends). Primed or numbered codes have the meaning given here. [ ]: non-standard residue; d: D form. Phe(4-(2-acetylaminoethoxy)) = 4-(2-acetamidoethoxy)-phenylalanine, CC(=O)NCCOc1ccc(C[C@H](N[*:1])C(=O)[*:2])cc1; Phe(4-OMe)(3) = O-methyl-L-tyrosine (4-methoxy-L-phenylalanine), COc1ccc(C[C@H](N[*:1])C(=O)[*:2])cc1; Phe(4-OMe) = 4-methoxy-L-phenylalanine (O-methyl-L-tyrosine), COc1ccc(C[C@H](N[*:1])C(=O)[*:2])cc1; 6‑amino‑1,4‑diazepane‑2,5‑dione = C-terminal 6-amino-1,4-diazepane-2,5-dione group; Phe(3,4-(OMe)2) = COc1ccc(C[C@H](N)C(=O)O)cc1OC; Phe(3,4-Cl2) = N[C@@H](Cc1ccc(Cl)c(Cl)c1)C(=O)O; 1Nal = N[C@@H](Cc1cccc2ccccc12)C(=O)O; 2Nal = N[C@@H](Cc1ccc2ccccc2c1)C(=O)O; AEF = NCCOc1ccc(C[C@H](N)C(=O)O)cc1; αMeL = CC(C)C[C@](C)(N)C(=O)O; Chg = N[C@H](C(=O)O)C1CCCCC1; hLeu = CC(C)CC[C@H](N)C(=O)O; αMeK = C[C@](N)(CCCCN)C(=O)O; Dab = NCC[C@H](N)C(=O)O; Abu = CC[C@H](N)C(=O)O; Aib = CC(C)(N)C(=O)O; βAla = NCCC(=O)O

T1: IL-23R on human cells (IL-23R-expressing DB cells; human NK cells) (human, UniProt Q5VWK5 24-629)
T1 sequence (looked up): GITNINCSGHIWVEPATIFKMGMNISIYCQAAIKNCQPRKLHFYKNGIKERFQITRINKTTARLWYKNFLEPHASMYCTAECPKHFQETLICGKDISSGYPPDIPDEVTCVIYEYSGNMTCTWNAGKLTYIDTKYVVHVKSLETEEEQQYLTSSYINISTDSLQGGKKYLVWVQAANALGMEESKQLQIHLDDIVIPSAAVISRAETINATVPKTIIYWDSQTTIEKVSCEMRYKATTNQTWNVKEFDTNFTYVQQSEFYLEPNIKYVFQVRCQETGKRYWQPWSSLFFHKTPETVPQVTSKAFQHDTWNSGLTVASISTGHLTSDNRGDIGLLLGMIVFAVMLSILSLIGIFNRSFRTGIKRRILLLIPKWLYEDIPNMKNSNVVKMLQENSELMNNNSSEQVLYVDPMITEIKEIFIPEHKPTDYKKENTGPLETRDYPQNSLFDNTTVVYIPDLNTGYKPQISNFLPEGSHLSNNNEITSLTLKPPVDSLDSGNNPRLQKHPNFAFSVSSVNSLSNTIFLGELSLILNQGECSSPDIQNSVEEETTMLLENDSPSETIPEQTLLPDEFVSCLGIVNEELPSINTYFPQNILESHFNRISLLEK

T2: IL23R_huFC (human, UniProt Q5VWK5 24-353)
T2 sequence (looked up): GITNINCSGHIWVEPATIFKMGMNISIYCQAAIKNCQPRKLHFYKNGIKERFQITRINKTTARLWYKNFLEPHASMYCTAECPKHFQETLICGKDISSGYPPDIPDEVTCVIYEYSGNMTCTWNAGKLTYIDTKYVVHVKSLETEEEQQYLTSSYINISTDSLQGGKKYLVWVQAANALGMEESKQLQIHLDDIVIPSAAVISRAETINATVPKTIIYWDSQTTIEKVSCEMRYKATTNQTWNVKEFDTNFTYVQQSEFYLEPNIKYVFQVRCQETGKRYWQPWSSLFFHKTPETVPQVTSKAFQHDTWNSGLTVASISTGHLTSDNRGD


Tests used:
Rat IL-23R_huFC [1] = biological target: Rat IL-23R_huFC (rat); test: rat ELISA vs IL-23
Rat IL-23R_huFC [2] = biological target: Rat IL-23R_huFC (rat); test: rat ELISA vs IL-23; remark: listed apart in the source
[3] = biological target: T1, IL-23R on human cells …; test: cell-based or functional assay
IL23R_huFC [4] = biological target: T2, IL23R_huFC; test: human ELISA vs IL-23
IL23R_huFC [5] = biological target: T2, IL23R_huFC; test: human ELISA vs IL-23; remark: listed apart in the source

Binder	IC50 (Rat IL-23R_huFC [1]) [nM]	IC50 (Rat IL-23R_huFC [2]) [nM]	pStat3 HTRF IC50 [3] [nM]	IC50 (IL23R_huFC [4]) [nM]	IC50 (IL23R_huFC [5]) [nM]
Ac-[Abu]QTWQC[Phe(4-OMe)][1Nal][αMeK]K(Ac)NG-NH2 (thioether 1-6) [Ac-Cyclo-[[Abu]-QTWQC]-[Phe(4-OMe)]-[1-Nal][α-MeLys]-[Lys(Ac)]-NG-NH2]	25 to 100	–	–	–	–
Ac-[Abu]QTWQC[Phe(4-(2-acetylaminoethoxy))][2Nal][αMeK](Ac)ENG-NH2 (thioether 1-6) [Ac-Cyclo-[[Abu]-QTWQC]-[Phe[4-(2-(acetyl-aminoethoxy)]]-[2-Nal]-[α-MeLys(Ac)]-ENG-NH2]	–	< 10	< 10	–	–
Ac-[Abu]QTWQC[Phe(4-(2-acetylaminoethoxy))][2Nal][αMeK](Ac)ENQ-NH2 (thioether 1-6) [Ac-Cyclo-[[Abu]-QTWQC]-[Phe[4-(2-(acetyl-aminoethoxy)]]-[2-Nal]-[α-MeLys(Ac)]-ENQ-NH2]	–	< 10	< 10	< 10	–
Ac-[Abu]QTWQC[Phe(4-(2-acetylaminoethoxy))][2Nal][αMeK](Ac)ENN-NH2 (thioether 1-6) [Ac-Cyclo-[[Abu]-QTWQC]-[Phe[4-(2-(acetyl-aminoethoxy)]]-[2-Nal]-[α-MeLys(Ac)]]-ENN-NH2]	–	< 10	< 10	< 10	–
Ac-[Abu]QTWQCYW[hLeu]ENG-NH2 (thioether 1-6) [Ac-Cyclo-[[Abu]-QTWQC]-YW-[hLeu]-ENG-NH2]	–	–	–	–	25 to 100
Ac-[Abu]QTWQC[AEF]W[Chg]K(Ac)NG-NH2 (thioether 1-6) [Ac-Cyclo-[[Abu]-QTWQC]-[Phe[4-(2-aminoethoxy)]]-W-Chg-[Lys(Ac)]-NG-NH2]	–	–	–	–	25 to 100
Ac-[Abu]QTWQC[Phe(4-OMe)(3)][2Nal][Chg]K(Ac)NG-NH2 (thioether 1-6) [Ac-Cyclo-[[Abu]-QTWQC]-[Phe(4-OMe)]-[Nal]-[Chg]-[Lys(Ac)]-NG-NH2]	–	–	–	–	25 to 100
Ac-[Abu]QTWQC[AEF][1Nal][Aib]K(Ac)NG-NH2 (thioether 1-6) [Ac-Cyclo-[[Abu]-QTWQC]-[Phe[4-(2-aminoethoxy)]]-1-Nal[Aib]-[Lys(Ac)]-NG-NH2]	–	–	–	–	25 to 100
Ac-[Abu]QTWQC[AEF]W[αMeK]K(Ac)-{6‑amino‑1,4‑diazepane‑2,5‑dione-NH2} (thioether 1-6)	–	–	< 10	–	25 to 100
Ac-[Abu]QTWQC[AEF][2Nal][Aib]E[Dab](Ac)G-NH2 (thioether 1-6) [Ac-Cyclo-[[Abu]-QTWQC]-[Phe[4-(2-aminoethoxy)]]-[2-Nal]-[Aib]-E-[Dab(Ac)]-G-NH2]	–	< 10	< 10	–	–

Next, values leading:

IC50 (Rat IL-23R_huFC [1]) [nM]	IC50 (Rat IL-23R_huFC [2]) [nM]	pStat3 HTRF IC50 [3] [nM]	IC50 (IL23R_huFC [4]) [nM]	IC50 (IL23R_huFC [5]) [nM]	Binder
–	< 10	< 10	< 10	–	Ac-[Abu]QTWQC[AEF][2Nal][hLeu]K(Ac)N[βAla]-NH2 (thioether 1-6) [Ac-Cyclo-[[Abu]-QTWQC]-[Phe[4-(2-aminoethoxy)]]-[2-Nal]-[hLeu]-[Lys(Ac)]-N-[βAla]-NH2]
–	< 10	< 10	< 10	–	Ac-[Abu]QTWQC[AEF][2Nal][αMeL]ENN-NH2 (thioether 1-6) [Ac-Cyclo-[[Abu]-QTWQC]-[Phe[4-(2-aminoethoxy)]]-[2-Nal]-[α-MeLeu]-ENN-NH2]
–	< 10	< 10	< 10	–	Ac-[Abu]QTWQC[AEF][2Nal][αMeL]K(Ac)NN-NH2 (thioether 1-6) [Ac-Cyclo-[[Abu]-QTWQC]-[Phe[4-(2-aminoethoxy)]]-[2-Nal]-[α-MeLeu]-[Lys(Ac)]-NN-NH2]
–	< 10	< 10	–	–	Ac-[Abu]QTWQC[AEF][2Nal][αMeK]ENG-NH2 (thioether 1-6) [Ac-Cyclo-[[Abu]-QTWQC]-[Phe[4-(2-aminoethoxy)]]-[2-Nal]-[α-MeLys]-ENG-NH2]
–	–	< 10	–	25 to 100	Ac-[Abu]QTWQC[AEF][Phe(3,4-Cl2)][Aib]ENN-NH2 (thioether 1-6) [Ac-Cyclo-[[Abu]-QTWQC]-[Phe[4-(2-aminoethoxy)]]-[Phe(3,4-Cl2)]-[Aib]-ENN-NH2]
–	–	–	–	25 to 100	Ac-[Abu]QTWQC[AEF][Phe(3,4-(OMe)2)][Aib]ENG-NH2 (thioether 1-6) [Ac-Cyclo-[[Abu]-QTWQC]-[Phe[4-(2-aminoethoxy)]]-[Phe(3,4-OMe2)]-[Aib]-ENG-NH2]
